# Source: patent US20240301071A1 (Alector, published 2024)
# Substitutions are numbered along the chain they refer to.
# B1: 3F9-20 (antibody, human IgG1, V domains shown)
# VH: EVQLLESGGGLVQPGGSLRLSCAASGFTFSSYAMSWVRQAPGKGLEWVATISEYGGSYTYYAESVKGRFTISRDNSKNTLYLQMNSLRAEDTAVYYCARPPYDDYYGGFQYWGQGTLVTVSS
# VL: DIQLTQSPSSLSASVGDRVTITCRASKSVSSGGYSYMHWYQQKPGKAPKLLIYLASNLESGVPSRFSGSGSGTDFTLTISSVQPEDFATYYCQHNRELPPTFGQGTKLEIK
# notes: also called mAb 3F9-20
# B2: 3F9-23 (antibody, human IgG1, V domains shown)
# VH: B1 VH
# VL: B1 VL with P100A
# notes: also called mAb 3F9-23
# B3: 3F9-18 (antibody, human IgG1, V domains shown)
# VH: B1 VH
# VL: B1 VL with P100S
# notes: also called mAb 3F9-18
# B4: 3F9-12 (antibody, human IgG1, V domains shown)
# VH: B1 VH with Q110R
# VL: B1 VL
# notes: also called mAb 3F9-12
# B5: 3F9-25 (antibody, human IgG1, V domains shown)
# VH: B1 VH
# VL: B1 VL with P100W
# notes: also called mAb 3F9-25
# B6: 3F9-21 (antibody, human IgG1, V domains shown)
# VH: B1 VH
# VL: B1 VL with P100T
# notes: also called mAb 3F9-21
# B7: 3F9-17 (antibody, human IgG1, V domains shown)
# VH: B1 VH with Q110R
# VL: B1 VL with P100W
# notes: also called mAb 3F9-17
# B8: 3F9-1 (antibody, human IgG1, V domains shown)
# VH: B1 VH with Q110A
# VL: B1 VL with P100S
# notes: also called mAb 3F9-1
# B9: 3F9-4 (antibody, human IgG1, V domains shown)
# VH: B1 VH with Q110A
# VL: B1 VL
# notes: also called mAb 3F9-4
# B10: 3F9-6 (antibody, human IgG1, V domains shown)
# VH: B1 VH with Q110A
# VL: B1 VL with P100V
# notes: also called mAb 3F9-6
# B11: 3F9-19 (antibody, human IgG1, V domains shown)
# VH: B1 VH
# VL: B1 VL with P100I
# notes: also called mAb 3F9-19
# B12: 3F9-10 (antibody, human IgG1, V domains shown)
# VH: B1 VH with Q110R
# VL: B1 VL with P100S
# notes: also called mAb 3F9-10
# B13: 3F9-16 (antibody, human IgG1, V domains shown)
# VH: B1 VH with Q110R
# VL: B1 VL with P100G
# notes: also called mAb 3F9-16
# B14: 3F9-13 (antibody, human IgG1, V domains shown)
# VH: B1 VH with Q110R
# VL: B1 VL with P100T
# notes: also called mAb 3F9-13
# B15: 3F9-9 (antibody, human IgG1, V domains shown)
# VH: B1 VH with Q110A
# VL: B1 VL with P100W
# notes: also called mAb 3F9-9
# B16: 3F9-7 (antibody, human IgG1, V domains shown)
# VH: B1 VH with Q110A
# VL: B1 VL with P100A
# notes: also called mAb 3F9-7
# B17: 3F9-24 (antibody, human IgG1, V domains shown)
# VH: B1 VH
# VL: B1 VL with P100G
# notes: also called mAb 3F9-24
# B18: 3F9-3 (antibody, human IgG1, V domains shown)
# VH: B1 VH with Q110A
# VL: B1 VL with P100I
# notes: also called mAb 3F9-3
# B19: 3F9-5 (antibody, human IgG1, V domains shown)
# VH: B1 VH with Q110A
# VL: B1 VL with P100T
# notes: also called mAb 3F9-5
# B20: 3F9-11 (antibody, human IgG1, V domains shown)
# VH: B1 VH with Q110R
# VL: B1 VL with P100I
# notes: also called mAb 3F9-11
# B21: 3F9-15 (antibody, human IgG1, V domains shown)
# VH: B1 VH with Q110R
# VL: B1 VL with P100A
# notes: also called mAb 3F9-15
# B22: 3F9-8 (antibody, human IgG1, V domains shown)
# VH: B1 VH with Q110A
# VL: B1 VL with P100G
# notes: also called mAb 3F9-8
# B23: 3F9-2 (antibody, human IgG1, V domains shown)
# VH: B1 VH with Q110A
# VL: B1 VL with P100C
# notes: also called mAb 3F9-2
# Biological target: T1, histidine-tagged human SIRPA v1 (Novoprotein) (human, UniProt P78324 31-370, limits assumed)
# T1 construct: bought, soluble; also called huSIRPA; soluble huSIRPA; not shown: histidine tag
# T1 sequence (P78324 31-370 limits assumed): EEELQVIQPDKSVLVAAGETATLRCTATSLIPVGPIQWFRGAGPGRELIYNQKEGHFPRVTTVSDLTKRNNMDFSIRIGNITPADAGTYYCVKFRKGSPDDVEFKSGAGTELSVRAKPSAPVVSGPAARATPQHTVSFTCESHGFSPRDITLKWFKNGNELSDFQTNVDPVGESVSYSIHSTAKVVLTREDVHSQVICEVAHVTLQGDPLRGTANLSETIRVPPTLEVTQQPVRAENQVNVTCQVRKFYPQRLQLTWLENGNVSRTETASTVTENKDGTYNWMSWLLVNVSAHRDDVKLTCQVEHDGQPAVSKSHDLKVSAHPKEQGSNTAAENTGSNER
# Experiment: BLI (Octet)
# Protocol: (§1) Initial characterization of affinity matured anti-SIRPA antibodies disclosed herein comprised acquiring antigen affinity measurements using bio-layer interferometry (BLI) on a Pall ForteBio Octet RED96 instrument. Immobilized anti-mouse IgG Fc or anti-human IgG Fc antibodies captured murine anti-SIRPA 3F79 antibody and humanized anti-SIRPA 3F79 antibody on biosensors, respectively. Single cycle kinetics were performed with 25 nM huSIRPA [which variant?] or 50 nM huSIRPB 1 flowed over captured antibody 3F79 to record traces. Data analysis was performed using ForteBio Data Analysis Software, version 9.0. Standard kinetic buffer (PBS, 0.100 BSA, 0.02% Tween-20, pH 7.2) was used for the assay and for preparing reagents. […] 50 nM of histidine-tagged human SIRPA vi or human SIRPB1 (Novoprotein, Summit, NJ, USA) were then bound to the captured anti-SIRPA antibody coated surface (200 s association time, 900 s dissociation time). […] Single-curve kinetic analysis was performed using a 1:1 interaction model to extract association and dissociation rate constants (ka and kd, respectively) for each antibody. Affinity constants (KD) were calculated from the ratio kd/ka.
row,fold increase in affinity relative to parental h3F9 [fold],Binder
1,~10,B1
2,~10,B2
3,~10,B3
4,~10,B4

# Biological target: T2, human SIRPA on human macrophages (primary monocyte-derived macrophages; U937 line) (human, UniProt P78324 31-504)
# T2 sequence (P78324 31-370): as the sequence (P78324 31-370 limits assumed) above
# Experiment: cell-based or functional assay
"SIRPA IC50 (nM), downregulation on U937 cells [nM]","SIRPA Max % DR, U937 cells [%]",Binder
0.152,75,B1
2.19,71,B3

# Biological target: T2, human SIRPA on human macrophages …
# Experiment: cell-based or functional assay
# Remark: another data set of the same source
"Phagocytosis, fold increase over baseline activity [fold]","SIRPA IC50 (nM), downregulation on human primary macrophages [nM]","SIRPA Max % DR, human primary macrophages [%]",Binder
1.62,0.0283,90,B1
1.52,0.0174,90,B3

# Biological target: T3, human SIRPA v1 on BWZ cells (BWZ-huSIRPA) (human, UniProt P78324 31-504)
# T3 construct: also called BWZ cells overexpressing human SIRPA; BWZ-huSIRPA v1 cells
# T3 sequence (P78324 31-504): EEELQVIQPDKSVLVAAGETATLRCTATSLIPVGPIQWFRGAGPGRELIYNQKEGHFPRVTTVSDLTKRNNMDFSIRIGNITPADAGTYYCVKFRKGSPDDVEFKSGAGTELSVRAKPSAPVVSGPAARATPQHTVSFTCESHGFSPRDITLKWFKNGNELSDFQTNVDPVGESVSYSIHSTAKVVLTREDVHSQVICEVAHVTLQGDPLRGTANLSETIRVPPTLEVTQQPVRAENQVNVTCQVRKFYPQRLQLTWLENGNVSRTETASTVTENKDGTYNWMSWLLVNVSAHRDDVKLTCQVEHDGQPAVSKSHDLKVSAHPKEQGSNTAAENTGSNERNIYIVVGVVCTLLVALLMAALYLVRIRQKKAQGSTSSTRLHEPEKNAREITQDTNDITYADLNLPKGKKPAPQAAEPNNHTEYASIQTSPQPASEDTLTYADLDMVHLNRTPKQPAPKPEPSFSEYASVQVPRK
# Experiment: flow cytometry titration on BWZ-huSIRPA cells, 4 C
# Protocol: After addition of fluorescently labeled secondary antibody and brief washing steps, MFI values as a function of titrated antibody concentration was recorded via FACS analysis. […] Receptor bound antibodies were detected by staining cells with anti-human IgG PE secondary antibody. Curves were fit using nonlinear regression analysis with Graphpad Prism 6 software.
row,EC50 [nM],Binder
1,0.96,B5
2,0.49,B1
3,0.51,B3
4,0.64,B6
5,0.61,B7

# Biological target: T1, histidine-tagged human SIRPA v1 …
# Experiment: BLI (Octet), antibody on anti-human IgG Fc sensor, His-huSIRPA in solution, single-curve 1:1 fit
# Protocol: as §1
Kd [nM],koff [s⁻¹],kon [M⁻¹ s⁻¹],Binder
2.09,0.000222,106000,B8
1.06,0.000162,153000,B5
0.85,0.000128,150000,B1
1.79,0.000203,113000,B9
0.539,9.11e-05,169000,B2
0.419,5.74e-05,137000,B3
1.65,0.000192,116000,B10
1.29,0.000181,141000,B11
1.51,0.000201,134000,B12
1.27,0.000151,119000,B13
1.03,0.000152,148000,B6
1.38,0.000201,146000,B14
3.38,0.000302,89400,B15
0.429,5.96e-05,139000,B4
1.81,0.00018,99200,B16
1.07,0.000155,144000,B17
4.43,0.000416,93900,B18
2.95,0.000276,93600,B19
1.43,0.000192,134000,B20
6.28,0.000362,57600,B21
3.6,0.000276,76600,B22
2.06,0.000222,108000,B23
1.7,0.000238,140000,B7
